In paper PMC10397247:

Experiments:
4H121-AA = target: T1, 4H121-AA; assay: two-hybrid library CCmax;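 also: natural log of median RNA to DNA barcode read ratio; higher means stronger binding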
T1 chain: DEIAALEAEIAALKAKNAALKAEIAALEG

4H1350-AA = target: T2, 4H1350-AA; assay: two-hybrid library CCmax; conditions: mean of both orientations;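 also: natural log of median RNA to DNA barcode read ratio; higher means stronger binding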
T2 chain: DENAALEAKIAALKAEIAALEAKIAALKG

4H1710-AA = target: T3, 4H1710-AA; assay: two-hybrid library CCmax; conditions: mean of both orientations;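 also: natural log of median RNA to DNA barcode read ratio; higher means stronger binding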
T3 chain: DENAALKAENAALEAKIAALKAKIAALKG

4H1985-AA = target: T4, 4H1985-AA; assay: two-hybrid library CCmax; conditions: mean of both orientations;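 also: natural log of median RNA to DNA barcode read ratio; higher means stronger binding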
T4 chain: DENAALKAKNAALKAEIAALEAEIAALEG

4H2187-AA = target: T5, 4H2187-AA; assay: two-hybrid library CCmax; conditions: mean of both orientations;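 also: natural log of median RNA to DNA barcode read ratio; higher means stronger binding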
T5 chain: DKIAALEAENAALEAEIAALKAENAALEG

4H233-AA = target: T6, 4H233-AA; assay: two-hybrid library CCmax; conditions: mean of both orientations;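 also: natural log of median RNA to DNA barcode read ratio; higher means stronger binding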
T6 chain: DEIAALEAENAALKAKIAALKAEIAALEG

4H2512-AA = target: T7, 4H2512-AA; assay: two-hybrid library CCmax; conditions: mean of both orientations
T7 chain: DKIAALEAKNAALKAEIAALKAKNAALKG

4H2646-AA = target: T8, 4H2646-AA; assay: two-hybrid library CCmax; conditions: mean of both orientations
T8 chain: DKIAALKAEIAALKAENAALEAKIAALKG

4H2687-AA = target: T9, 4H2687-AA; assay: two-hybrid library CCmax; conditions: mean of both orientations
T9 chain: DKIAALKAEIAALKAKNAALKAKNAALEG

4H2705-AA = target: T10, 4H2705-AA; assay: two-hybrid library CCmax; conditions: mean of both orientations
T10 chain: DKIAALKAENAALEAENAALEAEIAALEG

4H2758-AA = target: T11, 4H2758-AA; assay: two-hybrid library CCmax; conditions: mean of both orientations
T11 chain: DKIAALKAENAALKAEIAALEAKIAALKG

4H278-AA = target: T12, 4H278-AA; assay: two-hybrid library CCmax; conditions: mean of both orientations
T12 chain: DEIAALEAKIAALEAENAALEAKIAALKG

4H2873-AA = target: T13, 4H2873-AA; assay: two-hybrid library CCmax; conditions: mean of both orientations
T13 chain: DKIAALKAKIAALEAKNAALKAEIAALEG

4H2985-AA = target: T14, 4H2985-AA; assay: two-hybrid library CCmax; conditions: mean of both orientations
T14 chain: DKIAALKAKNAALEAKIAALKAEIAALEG

4H3134-AA = target: T15, 4H3134-AA; assay: two-hybrid library CCmax; conditions: mean of both orientations
T15 chain: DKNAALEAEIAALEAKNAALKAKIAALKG

4H3409-AA = target: T16, 4H3409-AA; assay: two-hybrid library CCmax; conditions: mean of both orientations
T16 chain: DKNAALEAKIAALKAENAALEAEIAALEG

4H3625-AA = target: T17, 4H3625-AA; assay: two-hybrid library CCmax; conditions: mean of both orientations
T17 chain: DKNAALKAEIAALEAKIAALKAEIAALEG

4H390-AA = target: T18, 4H390-AA; assay: two-hybrid library CCmax; conditions: mean of both orientations
T18 chain: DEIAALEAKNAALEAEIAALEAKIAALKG

4H3940-AA = target: T19, 4H3940-AA; assay: two-hybrid library CCmax; conditions: mean of both orientations
T19 chain: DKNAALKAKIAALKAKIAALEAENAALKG

4H510-AA = target: T20, 4H510-AA; assay: two-hybrid library CCmax; conditions: mean of both orientations
T20 chain: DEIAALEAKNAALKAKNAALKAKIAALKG

4H775-AA = target: T21, 4H775-AA; assay: two-hybrid library CCmax; conditions: mean of both orientations
T21 chain: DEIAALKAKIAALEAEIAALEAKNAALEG

4H816-AA = target: T22, 4H816-AA; assay: two-hybrid library CCmax; conditions: mean of both orientations
T22 chain: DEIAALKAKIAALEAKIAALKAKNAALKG

4H87-AA = target: T23, 4H87-AA; assay: two-hybrid library CCmax; conditions: mean of both orientations
T23 chain: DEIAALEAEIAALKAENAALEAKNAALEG

4H2696-bH = target: T24, 4H2696-bH; assay: two-hybrid library CCNG1
T24 chain: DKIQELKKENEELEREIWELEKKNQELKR

4H2883-bH = target: T25, 4H2883-bH; assay: two-hybrid library CCNG1
T25 chain: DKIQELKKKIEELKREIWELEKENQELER

4H2937-bH = target: T26, 4H2937-bH; assay: two-hybrid library CCNG1
T26 chain: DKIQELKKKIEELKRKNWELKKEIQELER

4H2944-bH = target: T27, 4H2944-bH; assay: two-hybrid library CCNG1
T27 chain: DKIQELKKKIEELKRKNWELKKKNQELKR

4H342-bH = target: T28, 4H342-bH; assay: two-hybrid library CCNG1
T28 chain: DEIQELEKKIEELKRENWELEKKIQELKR

4H48-bH = target: T29, 4H48-bH; assay: two-hybrid library CCNG1
T29 chain: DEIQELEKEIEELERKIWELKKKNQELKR

4H491-bH = target: T30, 4H491-bH; assay: two-hybrid library CCNG1
T30 chain: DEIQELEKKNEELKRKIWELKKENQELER

B1: 4H121-AA (peptide)
chain: DEIAALEAEIAALKAKNAALKAEIAALEG
With B1 the interaction score (4H121-AA) was 0.829, the interaction score (4H1350-AA) was 0.484 and the interaction score (4H1710-AA) was 0.228. It also gave an interaction score (4H1985-AA) of -1.39, an interaction score (4H2187-AA) of -0.0331 and an interaction score (4H233-AA) of -0.289. It also gave an interaction score (4H2512-AA) of -1.66, an interaction score (4H2646-AA) of 2.21 and an interaction score (4H2687-AA) of -0.303. For the same binder, the interaction score (4H2705-AA) was 0.603, the interaction score (4H2758-AA) was 0.775 and the interaction score (4H278-AA) was 2.13. The interaction score (4H2873-AA) was 0.239, the interaction score (4H2985-AA) was 0.209 and the interaction score (4H3134-AA) was 0.777. The interaction score (4H3409-AA) was 0.672, the interaction score (4H3625-AA) was -0.876 and the interaction score (4H390-AA) was 1.2. It also gave an interaction score (4H3940-AA) of -0.784, an interaction score (4H510-AA) of -1.47 and an interaction score (4H775-AA) of -0.904. For the same binder, the interaction score (4H816-AA) was -0.458 and the interaction score (4H87-AA) was 0.81.

B2: 4H2696-bH (peptide)
chain: DKIQELKKENEELEREIWELEKKNQELKR
B2 showed an interaction score (4H2696-bH) of 0.576, an interaction score (4H2883-bH) of 1.5 and an interaction score (4H2937-bH) of 1.47. For the same binder, the interaction score (4H2944-bH) was -0.0809, the interaction score (4H342-bH) was 0.972 and the interaction score (4H48-bH) was 1.04. It also gave an interaction score (4H491-bH) of 1.73.
